Reference: PMC3570547, “An Experimental Verification of the Predicted Effects of Promoter TATA-Box Polymorphisms Associated with Human Diseases on Interactions between the TATA Boxes and TATA-Binding Protein”

target: TBP (TATA-binding protein, hTBP) (Homo sapiens, UniProt P20226 1-339); experiment: EMSA; Fixed active TBP (typically 0.3 nM) titrated with 32P dsDNA to equilibrium; buffer, salt, pH and temperature not given in the material; conditions: protein: recombinant; label: 32P both strands; blunt
Sequence (P20226 whole entry): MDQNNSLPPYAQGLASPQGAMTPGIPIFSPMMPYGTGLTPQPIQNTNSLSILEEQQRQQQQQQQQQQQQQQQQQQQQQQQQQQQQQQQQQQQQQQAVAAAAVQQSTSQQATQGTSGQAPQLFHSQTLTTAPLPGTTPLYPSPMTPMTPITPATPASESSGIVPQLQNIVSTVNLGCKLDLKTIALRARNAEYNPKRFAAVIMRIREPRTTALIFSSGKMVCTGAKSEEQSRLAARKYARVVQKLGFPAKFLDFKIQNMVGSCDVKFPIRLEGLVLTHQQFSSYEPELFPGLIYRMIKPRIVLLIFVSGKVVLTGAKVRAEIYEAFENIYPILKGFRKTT

Binder | Kd
HBB -30T>C (dsDNA) DNA 1: CAGGGCTGGGCACAAAAGTCAGGGCA DNA 2: TGCCCTGACTTTTGTGCCCAGCCCTG | 0.111 ± 0.008 µM
TPI -24T>G (dsDNA) DNA 1: CGCGGCGCTCTATAGAAGTGGGCAGT DNA 2: ACTGCCCACTTCTATAGAGCGCCGCG | 0.15 ± 0.02 µM
SOD1 TATA WT (dsDNA) DNA 1: AGGTCTGGCCTATAAAGTAGTCGCGG DNA 2: CCGCGACTACTTTATAGGCCAGACCT | 0.04 ± 0.008 µM
IL1B -31C>T (dsDNA) DNA 1: TTTTGAAAGCTATAAAAACAGCGAGG DNA 2: CCTCGCTGTTTTTATAGCTTTCAAAA | 0.007 ± 0.001 µM
HBD -31A>G (dsDNA) DNA 1: ACAGGACCAGCGTAAAAGGCAGGGCA DNA 2: TGCCCTGCCTTTTACGCTGGTCCTGT | 0.12 ± 0.01 µM
MBL2 TATA WT (dsDNA) DNA 1: CATCTATTTCTATATAGCCTGCACCC DNA 2: GGGTGCAGGCTATATAGAAATAGATG | 0.028 ± 0.004 µM
NOS2A -21T>C (dsDNA) DNA 1: ATGGGGTGAGTATAAATACCTCTTGG DNA 2: CCAAGAGGTATTTATACTCACCCCAT | 0.0016 ± 0.0003 µM
TF TATA WT (-21C) (dsDNA) DNA 1: GCCGGCCCTTTATAGCGCGCGGGGCA DNA 2: TGCCCCGCGCGCTATAAAGGGCCGGC | 0.072 ± 0.009 µM
HBB -28A>C (dsDNA) DNA 1: CAGGGCTGGGCATACAAGTCAGGGCA DNA 2: TGCCCTGACTTGTATGCCCAGCCCTG | 0.3 ± 0.02 µM
HBD TATA WT (dsDNA) DNA 1: ACAGGACCAGCATAAAAGGCAGGGCA DNA 2: TGCCCTGCCTTTTATGCTGGTCCTGT | 0.046 ± 0.005 µM
HBB -28A>G (dsDNA) DNA 1: CAGGGCTGGGCATAGAAGTCAGGGCA DNA 2: TGCCCTGACTTCTATGCCCAGCCCTG | 0.087 ± 0.008 µM
HBB -30T>A (dsDNA) DNA 1: CAGGGCTGGGCAAAAAAGTCAGGGCA DNA 2: TGCCCTGACTTTTTTGCCCAGCCCTG | 0.116 ± 0.005 µM
HBB -27A>T (dsDNA) DNA 1: CAGGGCTGGGCATAATAGTCAGGGCA DNA 2: TGCCCTGACTATTATGCCCAGCCCTG | 0.064 ± 0.003 µM
MBL2 -35T>C (dsDNA) DNA 1: CATCTATTTCTACATAGCCTGCACCC DNA 2: GGGTGCAGGCTATGTAGAAATAGATG | 0.058 ± 0.009 µM
globin pseudogene -70T>C (dsDNA) DNA 1: CTGCCACACCCACATTATCAGAAAAT DNA 2: ATTTTCTGATAATGTGGGTGTGGCAG | 0.112 ± 0.006 µM
CYP2A6 TATA WT (dsDNA) DNA 1: TTTCAGGCAGTATAAAGGCAAACCAC DNA 2: GTGGTTTGCCTTTATACTGCCTGAAA | 0.017 ± 0.004 µM
NOS2A TATA WT (dsDNA) DNA 1: ATGGGGTGAGTATAAATACTTCTTGG DNA 2: CCAAGAAGTATTTATACTCACCCCAT | 0.0018 ± 0.0002 µM
FIX TATA WT (dsDNA) DNA 1: ACAGCTCAGCTTGTACTTTGGTACAA DNA 2: TTGTACCAAAGTACAAGCTGAGCTGT | 0.51 ± 0.06 µM
TPI TATA WT (dsDNA) DNA 1: CGCGGCGCTCTATATAAGTGGGCAGT DNA 2: ACTGCCCACTTATATAGAGCGCCGCG | 0.0048 ± 0.0007 µM
HBB -31A>G (dsDNA) DNA 1: CAGGGCTGGGCGTAAAAGTCAGGGCA DNA 2: TGCCCTGACTTTTACGCCCAGCCCTG | 0.099 ± 0.009 µM
CYP2A6 -48T>G (dsDNA) DNA 1: TTTCAGGCAGTAGAAAGGCAAACCAC DNA 2: GTGGTTTGCCTTTCTACTGCCTGAAA | 0.08 ± 0.02 µM
HBB TATA WT (dsDNA) DNA 1: CAGGGCTGGGCATAAAAGTCAGGGCA DNA 2: TGCCCTGACTTTTATGCCCAGCCCTG | 0.044 ± 0.003 µM
IL1B TATA WT (dsDNA) DNA 1: TTTTGAAAGCCATAAAAACAGCGAGG DNA 2: CCTCGCTGTTTTTATGGCTTTCAAAA | 0.029 ± 0.004 µM
globin pseudogene TATA WT (dsDNA) DNA 1: CTGCCACACCCACATTATTAGAAAAT DNA 2: ATTTTCTAATAATGTGGGTGTGGCAG | 0.152 ± 0.006 µM
SOD1 -27A>G (dsDNA) DNA 1: AGGTCTGGCCTGTAAAGTAGTCGCGG DNA 2: CCGCGACTACTTTACAGGCCAGACCT | 0.17 ± 0.03 µM
HBB -29A>G (dsDNA) DNA 1: CAGGGCTGGGCATGAAAGTCAGGGCA DNA 2: TGCCCTGACTTTCATGCCCAGCCCTG | 0.39 ± 0.02 µM
TF -21C>T (dsDNA) DNA 1: GCCGGCCCTTTATAGTGCGCGGGGCA DNA 2: TGCCCCGCGCACTATAAAGGGCCGGC | 0.026 ± 0.003 µM
